According to patent publication US20210221874A1:

Biological target: anthrax protective antigen, wild type PA83 (Bacillus anthracis) (UniProt P13423)
Sequence (P13423 30-764): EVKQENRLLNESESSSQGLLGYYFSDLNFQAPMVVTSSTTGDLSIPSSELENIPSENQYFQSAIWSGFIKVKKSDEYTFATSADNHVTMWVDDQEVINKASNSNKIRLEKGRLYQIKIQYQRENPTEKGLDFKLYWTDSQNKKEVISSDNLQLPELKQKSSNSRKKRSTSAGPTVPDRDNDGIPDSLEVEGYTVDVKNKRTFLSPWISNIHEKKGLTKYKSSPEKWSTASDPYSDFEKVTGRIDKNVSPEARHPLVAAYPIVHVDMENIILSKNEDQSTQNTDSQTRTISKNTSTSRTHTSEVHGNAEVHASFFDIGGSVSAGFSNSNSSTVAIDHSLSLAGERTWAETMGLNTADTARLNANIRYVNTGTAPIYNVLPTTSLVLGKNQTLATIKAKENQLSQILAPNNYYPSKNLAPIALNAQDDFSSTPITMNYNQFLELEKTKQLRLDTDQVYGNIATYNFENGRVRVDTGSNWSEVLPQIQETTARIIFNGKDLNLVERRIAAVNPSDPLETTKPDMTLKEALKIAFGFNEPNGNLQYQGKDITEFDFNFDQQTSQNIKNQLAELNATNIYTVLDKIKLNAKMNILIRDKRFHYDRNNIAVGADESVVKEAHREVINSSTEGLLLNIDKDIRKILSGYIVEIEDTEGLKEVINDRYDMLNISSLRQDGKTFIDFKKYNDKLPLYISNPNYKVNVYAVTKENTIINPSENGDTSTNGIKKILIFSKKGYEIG

With “neutralizing anti-PA mouse monoclonal antibody 14B7” the IC50 (read off the curve) was 10 nM.
